Measurements as given in US20210130436A1 (published 2021).
Where a chain is given by its changes, count along the chain named. Numbers in names are those of the source. Each block holds one binder with its values, some of them ahead of it.

Tests used:
human CD28 [1] = target: T1, human CD28 (human, UniProt P10747 19-220); assay: flow cytometry on Jurkat cells (CD28); vs CD80 WT IgV-Fc
T1 construct: Endogenous CD28 on Jurkat/IL2 reporter cells

human CTLA-4 [2] = target: T2, human CTLA-4 (human, UniProt P16410 36-223); assay: flow cytometry on CHO cells stably expressing CTLA4
T2 construct: also called huCTLA4
T2 sequence (P16410 36-223): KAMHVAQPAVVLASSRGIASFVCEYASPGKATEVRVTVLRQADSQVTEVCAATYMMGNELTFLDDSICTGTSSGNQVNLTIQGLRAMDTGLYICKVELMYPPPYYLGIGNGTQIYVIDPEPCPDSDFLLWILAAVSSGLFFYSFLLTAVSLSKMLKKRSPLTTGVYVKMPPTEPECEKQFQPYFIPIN

human PD-L1 [3] = target: T3, human PD-L1 (human, UniProt Q9NZQ7 19-290); assay: flow cytometry on CHO cells stably expressing PD-L1; vs CD80 WT IgV-Fc
T3 construct: also called huPD-L1; CD274
T3 sequence (Q9NZQ7 19-290): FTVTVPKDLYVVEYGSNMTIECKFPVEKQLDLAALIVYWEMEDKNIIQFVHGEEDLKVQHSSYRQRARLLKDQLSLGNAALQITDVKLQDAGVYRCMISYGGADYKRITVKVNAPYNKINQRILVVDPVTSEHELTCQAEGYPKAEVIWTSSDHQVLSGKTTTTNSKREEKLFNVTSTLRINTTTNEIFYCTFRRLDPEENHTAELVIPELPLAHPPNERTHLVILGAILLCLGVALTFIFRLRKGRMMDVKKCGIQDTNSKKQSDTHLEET

human PD-L1 [4] = target: T3, human PD-L1; assay: flow cytometry; PD-L1 MFI over CD28 MFI
human CTLA-4 [5] = target: T2, human CTLA-4; assay: flow cytometry on CHO cells stably expressing CTLA4; vs CD80 WT IgV-Fc
human PD-L1 [6] = target: T3, human PD-L1; assay: cell-based or functional assay
human CD28 [7] = target: T1, human CD28; assay: flow cytometry on Jurkat cells (CD28)
human PD-L1 [8] = target: T3, human PD-L1; assay: flow cytometry on CHO cells stably expressing PD-L1
[9] = target: T4, human CTLA-4 (CTLA4), expressed on CHO cells (human, UniProt P16410 36-223); assay: flow cytometry on CHO cells stably expressing human CTLA-4; PE anti-human Fc
T4 construct: Full-length surface expression construct transduced by lentivirus into CHO cells; also called huCTLA4
T4 sequence (P16410 36-223): as the sequence (P16410 36-223) above

[10] = target: T5, human PD-L1, expressed on CHO cells (human, UniProt Q9NZQ7 19-290); assay: flow cytometry on CHO cells stably expressing human PD-L1; PE anti-human Fc
T5 construct: Full-length surface expression construct transduced by lentivirus into CHO cells; also called huPD-L1; CD274
T5 sequence (Q9NZQ7 19-290): as the sequence (Q9NZQ7 19-290) above

[11] = target: T5, human PD-L1, expressed on CHO cells; assay: flow cytometry; ratio of MFI on PD-L1 CHO cells to MFI on Jurkat (CD28) cells
[12] = target: T5, human PD-L1, expressed on CHO cells; assay: flow cytometry on CHO cells stably expressing human PD-L1; MFI relative to WT CD80 ECD-Fc (R&D)
[13] = target: T6, CD28, endogenously expressed on Jurkat/IL2 reporter cells (human, UniProt P10747 19-220); assay: flow cytometry on Jurkat/IL2 reporter cells (endogenous CD28); MFI relative to WT CD80 ECD-Fc (R&D)
T6 construct: Endogenous CD28 of Jurkat/IL2 reporter cells

[14] = target: T4, human CTLA-4 (CTLA4), expressed on CHO …; assay: flow cytometry on CHO cells stably expressing human CTLA-4; MFI relative to WT CD80 ECD-Fc (R&D)
[15] = target: T6, CD28, endogenously expressed on …; assay: flow cytometry on Jurkat/IL2 reporter cells (endogenous CD28); PE anti-human Fc
human CTLA4 = target: T7, human CTLA4 (human, UniProt P16410 36-223); assay: flow cytometry, CHO cells expressing huCTLA4
T7 construct: also called huCTLA4
T7 sequence (P16410 36-223): as the sequence (P16410 36-223) above

human CD28 [16] = target: human CD28 (human, UniProt P10747 19-220); assay: flow cytometry, Jurkat/IL2 reporter cells (endogenous CD28)
human PD-L1 [17] = target: T8, human PD-L1 (human, UniProt Q9NZQ7 19-290); assay: flow cytometry, CHO cells expressing huPD-L1
T8 construct: also called huPD-L1; CD274
T8 sequence (Q9NZQ7 19-290): as the sequence (Q9NZQ7 19-290) above

B1: CD80 E35D/D46V/M47L/V68M/L85Q/E88D IgV-Fc, GS(G4S)5 linker (Fc fusion, not shown: a dimerising Fc or GST)
chain: VIHVTKEVKEVATLSCGHNVSVEELAQTRIYWQKDKKMVLTMMSGVLNIWPEYKNRTIFDITNNLSIMILALRPSDEGTYECVVQKYDKDAFKREHLAEVTLSVKADGSGGGGSGGGGSGGGGSGGGGSGGGGS
Fold change to WT CD80 (human CD28 [1]): 2.6 fold
MFI at 33.3 nM (human CTLA-4 [2]): 26600 MFI
Fold change to WT CD80 (human PD-L1 [3]): 481 fold
Ratio of PDL1:CD28 (human PD-L1 [4]): 157 ratio
Fold change to WT CD80 (human CTLA-4 [5]): 22.2 fold
Fold Increase over WT CD80-IgV-Fc, Jurkat/IL2 + CHO/OKT3/PD-L1 Reporter Assay (human PD-L1 [6]): 5.26 fold
RLU, Jurkat/IL2 + CHO/OKT3/PD-L1 Reporter Assay, CD80 Conc 5.0 nM (human PD-L1 [6]): 2050 RLU
MFI at 33.3 nM (human CD28 [7]): 143 MFI
MFI at 33.3 nM (human PD-L1 [8]): 22400 MFI

B2: wild-type CD80 IgV-Fc (inert) with GSG4S linker, Example 16 (Fc fusion)
chain: VIHVTKEVKEVATLSCGHNVSVEELAQTRIYWQKEKKMVLTMMSGDMNIWPEYKNRTIFDITNNLSIVILALRPSDEGTYECVVLKYEKDAFKREHLAEVTLSVKADGSGGGGSEPKSSDKTHTCPPCPAPEAEGAPSVFLFPPKPKDTLMISRTPEVTCVVVDVSHEDPEVKFNWYVDGVEVHNAKTKPREEQYNSTYRVVSVLTVLHQDWLNGKEYKCKVSNKALPAPIEKTISKAKGQPREPQVYTLPPSREEMTKNQVSLTCLVKGFYPSDIAVEWESNGQPENNYKTTPPVLDSDGSFFLYSKLTVDKSRWQQGNVFSCSVMHEALHNHYTQKSLSLSPG
notes: also called CD80 WT IgV-Fc
Fold change to WT CD80 (human CD28 [1]): 1 fold
MFI at 33.3 nM (human CTLA-4 [2]): 1200 MFI
Fold change to WT CD80 (human PD-L1 [3]): 1 fold
Ratio of PDL1:CD28 (human PD-L1 [4]): 1 ratio
Fold change to WT CD80 (human CTLA-4 [5]): 1 fold
Fold Increase over WT CD80-IgV-Fc, Jurkat/IL2 + CHO/OKT3/PD-L1 Reporter Assay (human PD-L1 [6]): 1 fold
RLU, Jurkat/IL2 + CHO/OKT3/PD-L1 Reporter Assay, CD80 Conc 5.0 nM (human PD-L1 [6]): 390 RLU
MFI at 33.3 nM (human CD28 [7]): 56 MFI
MFI at 33.3 nM (human PD-L1 [8]): 47 MFI

B4: variant CD80 IgV-Fc H18Y/A26E/A71G/D90G (Fc fusion, not shown: small tags and cut ends; a dimerising Fc or GST)
chain: VIHVTKEVKEVATLSCGYNVSVEELEQTRIYWQKEKKMVLTMMSGDMNIWPEYKNRTIFDITNNLSIVILGLRPSDEGTYECVVLKYEKGAFKREHLAEVTLSVKAD
MFI at 33.3 nM (human CTLA4): 19900 MFI
MFI at 33.3 nM (human CD28 [16]): 2000 MFI

B5: variant CD80 IgV-Fc M47L/V68M/A71G/D90G (Fc fusion, not shown: small tags and cut ends; a dimerising Fc or GST)
chain: B4 chain with Y18H, E26A, M47L, V68M
MFI at 33.3 nM (human CTLA4): 17400 MFI
MFI at 33.3 nM (human PD-L1 [17]): 31100 MFI
MFI at 33.3 nM (human CD28 [16]): 3610 MFI

Next, values leading:

MFI at 33.3 nM [9]: 273000 MFI
MFI at 33.3 nM [10]: 71900 MFI
Ratio of PDL1:CD28 [11]: 3 ratio
Fold change to WT CD80 [12]: 6.06 fold
Fold change to WT CD80 [13]: 1.5 fold
Fold change to WT CD80 [14]: 1.74 fold
MFI at 33.3 nM [15]: 27100 MFI
B3: variant CD80 IgV-Fc E35D/D46E/M47V/V68M/D90G/K93E (Fc fusion, not shown: small tags and cut ends; a dimerising Fc or GST)
chain: B4 chain with Y18H, E26A, E35D, D46E, M47V, V68M, G71A, K93E
notes: Fc fusion of the variant IgV

MFI at 33.3 nM [9]: 226000 MFI
MFI at 33.3 nM [10]: 11900 MFI
Ratio of PDL1:CD28 [11]: 9 ratio
Fold change to WT CD80 [12]: 1 fold
Fold change to WT CD80 [14]: 1.44 fold
B6: variant CD80 IgV-Fc E35D/M42V/M47V/E52D/L85Q (Fc fusion, not shown: small tags and cut ends; a dimerising Fc or GST)
chain: B4 chain with Y18H, E26A, E35D, M42V, M47V, E52D, G71A, L85Q, G90D
notes: Fc fusion of the variant IgV
